Source: paper PMC7473840, “Identification of a molecular locus for normalizing dysregulated GABA release from interneurons in the Fragile X brain” (Molecular Psychiatry, 2018)

Biological target: FMRP (mouse cerebellum) (UniProt P35922)
Assay: anti-FMRP IP, Kv1.2 blot, peptide competition
Conditions: reference: no peptide (control); sites S440,S441

other: reduction of co-IP'd Kv1.2: 75%
Substance: Kv1.2 (from UniProt P63141) 250 μM PhosKv436-457 (pS440/pS441) peptide added
